# According to patent publication US11202830B2, “Human immunodeficiency virus therapies utilizing N332-glycan-dependent antibodies in subjects with low viral loads” (priority 2013, dated 2021):
# How the values were obtained:
# SHIV-SF162P3 [1] = assay: Antibody infusion in rhesus monkeys chronically infected with SHIV-SF162P3: plasma viral RNA; type: in vivo, rhesus monkeys (Macaca mulatta)
# Excerpt: (§1) Groups were balanced for susceptible and resistant TRIM5α alleles (Lim et al., PLoS Pathog. 6: e1000738, 2010; Letvin et al., Sci Transl Med. 3: 81 ra36, 2011). Animals infected by the intrarectal route with our rhesus-derived SHIV-SF162P3 challenge stock for 9 months prior to antibody administration were utilized for the studies. […] 3BNC117 was manufactured by Celldex Therapeutics in CHO cells and purified by chromatography and sterile filtration. All the antibody preparations were endotoxin free. Cocktails of antibodies or single antibodies were administered to monkeys once or twice by the intravenous route at a dose of 10 mg/kg for each antibody. Monkeys were bled up to three times per week for viral loads. All animal studies were approved by the appropriate Institutional Animal Care and Use Committee (IACUC).
# To evaluate the therapeutic potential of broad and potent HIV-1-specific antibodies in nonhuman primates, we infused cocktails of antibodies, as well as single antibodies, in chronically SHIV-infected rhesus monkeys.
# We next investigated the therapeutic efficacy of a single infusion of the cocktail of three antibodies as well as a combination of only two antibodies. […] Viral rebound occurred in the majority of animals between day 28 and day 84 (FIGS. 2A and 2B) and was associated with declines of serum antibody titers to undetectable levels (FIGS. 2E and 2F).
# It is generally believed that a combination of antibodies directed against multiple epitopes will be required for virologic control (Klein et al., Nature. 492: 118-122, 2012; Poignard et al., Immunity. 10: 431-438, 1999; Trkola et al., Nat Med. 11: 615-622, 2005; Diskin et al., J Exp Med. 210:1235-1249, 2013). However, the current extraordinarily potent and broad antibodies have not previously been evaluated in nonhuman primates with intact immune systems.
# SHIV-SF162P3 [2] = assay: Sensitivity of SHIV-SF162P3 to 3BNC117; type: cell-based
# [3] = test system: SHIV-SF162P3 proviral DNA; assay: Proviral DNA assay (PBMC, lymph node, gastrointestinal mucosa) after antibody infusion; type: in vivo, rhesus monkeys (Macaca mulatta); details: day 14 after single infusion 10 mg/kg
# Excerpt: as §1
# Lymph node and gastrointestinal mucosal biopsies were processed as single cell suspensions essentially as previously described (Li et al., J Virol 85: 11007-11015, 2011). Tissue-specific proviral DNA was quantitated as previously reported (Whitney et al., J Virol. 83: 10840-10843, 2009). Total cellular DNA was isolated from 5×10^6 cells using a QIAamp DNA Blood Mini kit (Qiagen). The absolute quantification of viral DNA in each sample was determined by qPCR using primers specific to a conserved region SIVmac239. All samples were directly compared to a linear virus standard and the simultaneous amplification of a fragment of human GAPDH gene. The sensitivity of linear standards was compared against the 3D8 cell line as a reference standard as described (Whitney et al., J Virol. 83: 10840-10843, 2009). All PCR assays were performed with 100 and 200 ng of sample DNA.
# clade C viruses = details: cited from earlier work
Molecule,transient reduction of plasma viral loads (SHIV-SF162P3 [1]; single infusion 10 mg/kg),sensitivity of the SHIV-SF162P3 challenge stock (SHIV-SF162P3 [2]; applicant's rhesus-derived challenge stock),sensitivity of the cloned SHIV-SF162P3 pseudovirus (SHIV-SF162P3 [2]; cloned pseudovirus),"no evidence of viral rebound for (SHIV-SF162P3 [1]; baseline <3.5 log RNA copies/ml, monkeys 4905 and DN1G)","time virtually undetectable viral RNA was maintained after treatment (SHIV-SF162P3 [1]; one infusion on day 0, n=3)","viral RNA after treatment (SHIV-SF162P3 [1]; one infusion on day 0, n=3)","virologic suppression compared to 10-1074, 3BNC117, or VRC07-523 (SHIV-SF162P3 [1]; one infusion on day 0, n=3)","animals with rapid virologic control to undetectable levels by day 7 (SHIV-SF162P3 [1]; single i.v. infusion day 0, 10 mg/kg of each antibody)",outcome in one animal (monkey DN1G) (SHIV-SF162P3 [1]; single infusion 10 mg/kg),reduction of proviral DNA in lymph nodes vs DEN3 control ([3]; P=0.05),reduction of proviral DNA in peripheral blood vs DEN3 control ([3]; P=0.05),reduction of proviral DNA in gastrointestinal mucosa vs DEN3 control ([3]; P=0.1),clade C viruses covered (clade C viruses)
"3BNC117: CD4bs-specific antibody; light chain SEQ ID NO: 257, heavy chain SEQ ID NO: 258 (antibody, listed as Homo sapiens) heavy: QVQLLQSGAAVTKPGASVRVSCEASGYNIRDYFIHWWRQAPGQGLQWVGWINPKTGQPNNPRQFQGRVSLTRHASWDFDTFSFYMDLKALRSDDTAVYFCARQRSDYWDFDVWGSGTQVTVSS light: DIQMTQSPSSLSASVGDTVTITCQANGYLNWYQQRRGKAPKLLIYDGSKLERGVPSRFSGRRWGQEYNLTINNLQPEDIATYFCQVYEFVVPGTRLDLKRTVA",0.2-1.1 log,largely resistant,highly sensitive,–,–,–,–,–,–,–,–,–,–
"PGT121: N332 glycan-dependent antibody; CDRs SEQ ID NO: 1-6, VH SEQ ID NO: 7, VL SEQ ID NO: 8 (antibody, V domains shown) VH: QMQLQESGPGLVKPSETLSLTCSVSGASISDSYWSWIRRSPGKGLEWIGYVHKSGDTNYSPSLKSRVNLSLDTSKNQVSLSLVAATAADSGKYYCARTLHGRRIYGIVAFNEWFTYFYMDVWGNGTQVTVSS VL: SDISVAPGETARISCGEKSLGSRAVQWYQHRAGQAPSLIIYNNQDRPSGIPERFSGSPDSPFGTTATLTITSVEAGDEADYYCHIWDSRVPTKWVFGGGTTLTVL",–,–,–,over 100 days,at least 15 days,virtually undetectable levels of viral RNA within days of treatment,extremely potent virologic suppression,4 of 4,long-term virologic control,4 fold,6 fold,4 fold,approximately 70%
